Test results taken from patent US20130195866A1, “METHODS TO INHIBIT NEURODEGENERATION” (priority 2010, published 2013).

Molecular target: human amyloid β (Aβ) peptides secreted into the medium of Tg2576 neuron cultures (Aβ40, Aβ42 and their oligomers) (human) (UniProt P05067)
Assay: cell-based or functional assay

Chain of human amyloid β (Aβ) peptides secreted into the medium of Tg2576 neuron cultures (Aβ40, Aβ42 and their oligomers) (human) (P05067 672-713 limits assumed): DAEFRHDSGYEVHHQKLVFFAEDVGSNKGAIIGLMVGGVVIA

[Ca2+]i of wild-type neurons treated with TgCM depleted with 3D6 (Indo-1): 98 nM
Substance: 3D6 antibody, a high-titer monoclonal Aβ antibody
